Experiments:
MS2 coat protein [1] = test: apparent KD of MS2 coat protein, switch OFF state (with FMN for OFF switches, without FMN for ON switches); designed switch direction (-1 OFF switch, 1 ON switch): -1; higher = weaker reporter binding; conditions: FMN input: 0 or 200 uM; Eterna round: R93 (includes R88 designs)
In short: (§1)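 Apparent KD was obtained for each design as the median of normalised binding-curve fits over its clusters. RNA switches transcribed on-chip from Illumina sequencing clusters were titrated with SNAP-549-labelled MS2 coat protein (twofold steps, 0.7 or 1.5 nM to 3 µM) in 100 mM Tris-HCl pH 7.5, 80 mM KCl, 4 mM MgCl2, without or with constant ligand.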

MS2 coat protein [2] = test: apparent KD of MS2 coat protein, switch ON state; designed switch direction (-1 OFF switch, 1 ON switch): -1; higher = weaker reporter binding; conditions: FMN input: 0 or 200 uM; Eterna round: R93 (includes R88 designs)
In short: as §1

With “AAAAAAGGAGGAUAUACGUACAUGUCAAAAGACGUGAAGGGACAUGAGGAUCACCCAUGUAGAAGGCCUAAAAA [JL Part Open 33]” the “apparent KD of MS2 coat protein” value (MS2 coat protein [1]) was 78.3 nM and the “apparent KD of MS2 coat protein” value (MS2 coat protein [2]) was 45.2 nM.

With “AAAAAAUCAGGAUAUACAUGAGGAUCACCCAUGUGAAAGAACGAUUAACGACCAGCAAGUAGAAGGGAUAAAAA [Ruby 81]” the “apparent KD of MS2 coat protein” value (MS2 coat protein [1]) was 19.7 nM and the “apparent KD of MS2 coat protein” value (MS2 coat protein [2]) was 18.1 nM.

For “AAAAAAUGAGGAUAUACAUGAGGAUCACCCAUGUAAAAGGUCAGGGUGGCGGAGGACGGUAGAAGGCAUAAAAA [Excls3-X]”, the “apparent KD of MS2 coat protein” value (MS2 coat protein [1]) was 18.2 nM and the “apparent KD of MS2 coat protein” value (MS2 coat protein [2]) was 21.6 nM.

“AAAAACAGAGGAUAUACAAAAUUAUGACGAAAGUCAUAAAAACAUGAGGAUCACCCAUGUAGAAGGCUGGAAAA [Mat - Mod of Meechl]” was tested, and the “apparent KD of MS2 coat protein” value (MS2 coat protein [1]) was 22.7 nM and the “apparent KD of MS2 coat protein” value (MS2 coat protein [2]) was 28.5 nM.

With “AAAAACGGAGGAUAUACAAAUUAAGGAAGAAAACACGAAAAACAUGAGGAUCACCCAUGUAGAAGGCCGGAAAA [Ex 2 #3]” the “apparent KD of MS2 coat protein” value (MS2 coat protein [1]) was 29.7 nM and the “apparent KD of MS2 coat protein” value (MS2 coat protein [2]) was 24.1 nM.

In the case of “AAAAACUCAGGAUAUAUUAUGGGACAAUGAAGGAAGAUAAAACAUGAGGAUCACCCAUGUAGAAGGGAGAAAAA [JR_Exclusion2_Sub2]”, the “apparent KD of MS2 coat protein” value (MS2 coat protein [1]) is reported as 62.8 nM and the “apparent KD of MS2 coat protein” value (MS2 coat protein [2]) is reported as 57.7 nM.

“AAAAACUGAGGAUAUACAUGAGGAUCACCCAUGUGAAAGAAAGAAAAAAGAAAAGAAAGUAGAAGGCAGAAAAA [Ruby 76]” was tested, and the “apparent KD of MS2 coat protein” value (MS2 coat protein [1]) was 29.5 nM and the “apparent KD of MS2 coat protein” value (MS2 coat protein [2]) was 34 nM.

For “AAAAACUGAGGAUAUACGAAAAAAAAAAAAAAAAAAAAAAAACAUGAGGAUCACCCAUGUAGAAGGCAGAAAAA [exclusion 02 - A]”, the “apparent KD of MS2 coat protein” value (MS2 coat protein [1]) was 57.5 nM and the “apparent KD of MS2 coat protein” value (MS2 coat protein [2]) was 41.4 nM.

For “AAAAACUGAGGAUAUACUUUGGGAAAAGAAAAGAUGAUGUUACAUGAGGAUCACCCAUGUAGAAGGCAGAAAAA [Mat - Exclusion 2 - Mod - D154]”, the “apparent KD of MS2 coat protein” value (MS2 coat protein [1]) was 43 nM and the “apparent KD of MS2 coat protein” value (MS2 coat protein [2]) was 25.4 nM.

“AAAAAGAUAGGAUAUACGAACAUGUCAAAAGACGUGAAGGGACAUGAGGAUCACCCAUGUAGAAGGGUUAAAAA [JL Wide Open 38]” was tested, and the “apparent KD of MS2 coat protein” value (MS2 coat protein [1]) was 66.6 nM and the “apparent KD of MS2 coat protein” value (MS2 coat protein [2]) was 155 nM.

“AAAAAGAUAGGAUAUACGUACAUGUCGAAAGACGUGAAGGGACAUGAGGAUCACCCAUGUAGAAGGGUUAAAAA [Mat - Exclusion 2 - JL mod - D91]” was tested, and the “apparent KD of MS2 coat protein” value (MS2 coat protein [1]) was 52.4 nM and the “apparent KD of MS2 coat protein” value (MS2 coat protein [2]) was 185 nM.

“AAAAAGCGAGGAUAUACAUAGCUAAGACAAAUAAGCAAAAAACAUGAGGAUCACCCAUGUAGAAGGCGCAAAAA [Exclusion2-01]” was tested, and the “apparent KD of MS2 coat protein” value (MS2 coat protein [1]) was 15.4 nM and the “apparent KD of MS2 coat protein” value (MS2 coat protein [2]) was 19.6 nM.

With “AAAAAGCGAGGAUAUACAUAGCUAAGACAAAUAAGCAAGGGACAUGAGGAUCACCCAUGUAGAAGGCGCAAAAA [Exclusion 2-01... 60% 1]” the “apparent KD of MS2 coat protein” value (MS2 coat protein [1]) was 97.3 nM and the “apparent KD of MS2 coat protein” value (MS2 coat protein [2]) was 34.7 nM.

For “AAAAAGCGAGGAUAUACAUGAGGAUCACCCAUGUCAAAAGAAUAUAAAGAAAUAGGAAGUAGAAGGCGCAAAAA [Ex 3 #3]”, the “apparent KD of MS2 coat protein” value (MS2 coat protein [1]) was 56.4 nM and the “apparent KD of MS2 coat protein” value (MS2 coat protein [2]) was 67.1 nM.

With “AAAAAGCGAGGAUAUACAUGAGGAUCACCCAUGUGAAAAAAAAAAAAAAAAAAAAAAAGUAGAAGGCGCAAAAA [GC super strong! + G boost]” the “apparent KD of MS2 coat protein” value (MS2 coat protein [1]) was 39.2 nM and the “apparent KD of MS2 coat protein” value (MS2 coat protein [2]) was 46.4 nM.

In the case of “AAAAAGCGAGGAUAUACAUGAGGAUCACCCAUGUGAAAAAAAAAAAAAAAAAAAAAAAGUAGAAGGCGCAAAAA [H20 RNA]”, the “apparent KD of MS2 coat protein” value (MS2 coat protein [1]) is reported as 39.2 nM and the “apparent KD of MS2 coat protein” value (MS2 coat protein [2]) is reported as 46.4 nM.

For “AAAAAGCGAGGAUAUACGAGUCAAAGAAAAGACAAAAAGGGACAUGAGGAUCACCCAUGUAGAAGGCGCAAAAA [Fiskers exclusion D2 62% 3]”, the “apparent KD of MS2 coat protein” value (MS2 coat protein [1]) was 47.1 nM and the “apparent KD of MS2 coat protein” value (MS2 coat protein [2]) was 30.5 nM.

With “AAAAAGGAAGGAUAUACAUGAGGAUCACCCAUGUAAAAAAAAAAAAAGGGAAAAAAAAGUAGAAGGUCCAAAAA [Montuemsaf Djedankhre]” the “apparent KD of MS2 coat protein” value (MS2 coat protein [1]) was 40.9 nM and the “apparent KD of MS2 coat protein” value (MS2 coat protein [2]) was 33 nM.

With “AAAAAGGAAGGAUAUACGAACAUGUCAAAAGACGUGAAGGGACAUGAGGAUCACCCAUGUAGAAGGUCCAAAAA [JL Half Open 23]” the “apparent KD of MS2 coat protein” value (MS2 coat protein [1]) was 99.6 nM and the “apparent KD of MS2 coat protein” value (MS2 coat protein [2]) was 83.4 nM.

In the case of “AAAAAGGAAGGAUAUACGAACAUGUCAAAAGACGUGAAGGGACAUGAGGAUCACCCAUGUAGAAGGUUCAAAAA [JL Half Open 24]”, the “apparent KD of MS2 coat protein” value (MS2 coat protein [1]) is reported as 18.5 nM and the “apparent KD of MS2 coat protein” value (MS2 coat protein [2]) is reported as 38.7 nM.

Source: the supplement of paper PMC9170038
